Reference: patent US20220380776A1

Biological target: CD46 (UniProt P15529)
Experiment: Kd, method not stated (column head 'Kd (Oleks)')

Chain of UniProt P15529 (P15529 35-343 limits assumed): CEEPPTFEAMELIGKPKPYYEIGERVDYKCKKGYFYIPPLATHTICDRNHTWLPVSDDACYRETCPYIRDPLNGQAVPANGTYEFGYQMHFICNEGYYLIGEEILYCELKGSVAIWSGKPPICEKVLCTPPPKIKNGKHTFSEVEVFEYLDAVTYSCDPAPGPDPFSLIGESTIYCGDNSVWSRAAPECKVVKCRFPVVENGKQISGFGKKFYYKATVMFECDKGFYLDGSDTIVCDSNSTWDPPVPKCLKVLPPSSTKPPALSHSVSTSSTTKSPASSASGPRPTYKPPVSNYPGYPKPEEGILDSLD

Ad35 knob A8: Ile192Val Ile256Val
Kd: 13.7 nM
